Consider 5 molecules from article PMC6472409, “Dishevelled-3 conformation dynamics analyzed by FRET-based biosensors reveals a key role of casein kinase 1” (Nature Communications, 2019).

Experiment [1] deals with recombinant His-tagged human CK1ε (Homo sapiens, UniProt P49674). In words: Fluorescence anisotropy (FA) binding of FITC-labeled peptides. Particulars: FITC-Ahx peptide 50 nM, 30 min, 37 °C; n=3; read-out: affinity for recombinant CK1ε (fluorescence anisotropy). An excerpt:
The peptides used in the fluorescent polarization (FA) binding assays were synthesized at Pepscan B.V. (Lelystad, Netherlands). The sequences of these peptides (indicated in Supplementary Fig. 4a) were amidated at their C-termini, and their N-termini were acylated with 6-aminocaproic acid (Ahx) modified with fluorescein isothiocyanate (FITC). The peptides used in the NMR/SPR studies were purchased from KareBay Biochem, Inc. (New Jersey, USA). The peptides for the NMR/SPR studies contained no terminal modifications.
Data were recorded at 37 °C using Tecan Infinite F500 (Tecan Systems, Germany). FITC-labeled peptides were dissolved in DMSO and added to 384-well plates (Corning) to a total volume of 20 μl (peptide final concentration was 50 nM). Incubation with recombinant His-tagged human CK1ε (MyBioSource, #MBS964562) was performed for 30 min at 37 °C. Then, fluorescence intensities were collected simultaneously by detection at 535/590 and 485/535 nm excitation/emission wavelengths, respectively, followed by adjustment to the blank controls.
A general note: Polarisation of emitted light reports the rotation of a fluorescent probe.

The target in experiment [2] is FITC-labeled peptide corresponding to the DVL3 FRMA region, non-phosphorylated (fluorescence anisotropy) (human). In words: fluorescence polarisation; fluorescence anisotropy, 50 nM FITC-labeled peptide with recombinant His-tagged human CK1ε, 30 min at 37 °C, 384-well plates.
Experiment [3] has as its target FITC-labeled peptide corresponding to the DVL3 RGCF region, non-phosphorylated (fluorescence anisotropy) (human). The experiment is described as above.
Experiment [4] deals with FITC-labeled peptide corresponding to the DVL3 RGPR region, non-phosphorylated (fluorescence anisotropy) (human). The description is as above.
The next experiment deals with Xenopus laevis embryos. In words: Convergent extension (CE) / neural tube defects in Xenopus embryos (Wnt/PCP readout). Format: in vivo. Particulars: Dorsal injection, 100pg/embryo. The text has this:
In the cell culture model we were unable to dissect the effects on the non-canonical Wnt/PCP pathway, and as such we turned into the Xenopus embryo model. Alterations in the Wnt/PCP pathway activity result in the convergent extension (CE) defects (Supplementary Fig. 7b, right). In order to avoid any artifacts, we tested the constitutively open and closed variants of xDvl3 based on point mutations or small deletions—namely open xDvl3 ΔC and xDvl3 (S267E/S310E) and closedxDvl3 (S267A/S310A). Phosphorylation sites in the PDZ domain are fully conserved between human and Xenopus (for alignment see Supplementary Fig. 5a) and hDVL3 S268/S311 corresponds to xDvl3 S267/S310.
The work with Xenopus laevis was carried out according to the German animal use and care law (Das Tierschutzgesetz) and approved by the local authorities and committees (animal care and housing approval: I/39/EE006, Veterinäramt Erlangen; animal experiments approval: 54-2532.2-8/08, German state administration Bavaria/Regierung von Mittelfranken). The generation and cultivation of Xenopus embryos was done in accordance with general protocols and staged after the normal table of Niewkoop and Faber (1994)[53].
RNA for microinjection was synthesized from plasmids pCS2 myc-xDvl3 (ref. [54]), pCS2 myc-xDvl3 ΔALL (lacking sequence corresponding to aa 338–350, 609–619, and 693–705 in xDvl3), pCS2 xDvl3 (S267A/S310A), pCS2 xDvl3 (S267E/S310E), pCS2 xDvl3 ΔC, and pCS2 xCK1ε[55], respectively, using the mMessage mMachine Kit (Ambion). Embryos were injected at the four-cell stage either into the two ventral blastomeres for testing the constructs' ability to induce a secondary body axis. Injection amounts of synthetic RNA were 500 pg for myc-xDvl3 wild type and the myc-xDvl3 ∆ALL variant, and 150 pg for xCK1ε RNA. For the analysis of morphogenetic defects, four-cell stage embryos were injected into the two dorsal blastomeres with 100 pg myc-xDvl3 RNA and the corresponding variant RNAs. After injection, the embryos were cultivated until they reached stage 26, fixed, and analyzed for axis duplication or morphogenetic defects, respectively.

Where a SMILES comes first, the peptide text is derived from it. The star is where a group is joined. FITC = O=C1OC2(c3ccc(O)cc3Oc3cc(O)ccc32)c2ccc(NC(=S)*)cc21; Ahx = NCCCCCC(=O)O

Chain of recombinant His-tagged human CK1ε (P49674 whole entry): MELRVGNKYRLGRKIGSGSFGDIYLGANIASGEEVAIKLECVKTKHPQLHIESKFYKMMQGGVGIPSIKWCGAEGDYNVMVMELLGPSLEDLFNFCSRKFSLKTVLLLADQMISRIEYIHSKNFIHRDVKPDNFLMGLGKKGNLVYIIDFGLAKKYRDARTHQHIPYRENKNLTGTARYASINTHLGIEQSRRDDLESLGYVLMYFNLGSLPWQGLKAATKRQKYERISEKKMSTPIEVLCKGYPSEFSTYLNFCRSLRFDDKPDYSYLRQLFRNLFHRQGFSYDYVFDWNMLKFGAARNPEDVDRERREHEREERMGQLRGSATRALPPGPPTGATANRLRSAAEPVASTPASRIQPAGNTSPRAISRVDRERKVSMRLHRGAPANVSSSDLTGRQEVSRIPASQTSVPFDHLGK

With `CSCC[C@H](NC(=O)[C@H](C)NC(=O)[C@H](CCSC)NC(=O)[C@H](CCCNC(=N)N)NC(=O)[C@H](Cc1ccccc1)NC(=O)[C@H](CO)NC(=O)[C@H](CCC(N)=O)NC(=O)[C@H](CCCNC(=N)N)NC(=O)CCCCCNC(=S)Nc1ccc2c(c1)C(=O)OC21c2ccc(O)cc2Oc2cc(O)ccc21)C(=O)NCC(=O)N[C@@H](CC(N)=O)C(N)=O` [FRMA] ({FITC-Ahx}-RQSFRMAMGN-NH2), the Kd in experiment [1] was about 1000 nM.
Same read-out and setting: for `CC(C)C[C@H](NC(=O)[C@@H](NC(=O)[C@H](Cc1ccccc1)NC(=O)[C@H](CS)NC(=O)CNC(=O)[C@H](CCCNC(=N)N)NC(=O)[C@@H]1CCCN1C(=O)[C@H](CO)NC(=O)[C@@H]1CCCN1C(=O)CCCCCNC(=S)Nc1ccc2c(c1)C(=O)OC21c2ccc(O)cc2Oc2cc(O)ccc21)[C@@H](C)O)C(=O)N1CCC[C@H]1C(=O)N[C@@H](CCCNC(=N)N)C(=O)N[C@@H](CO)C(=O)N[C@@H](CCC(=O)O)C(N)=O` [RGCF] ({FITC-Ahx}-PSPRGCFTLPRSE-NH2) the value was about 1000 nM.
On the same count and under the same terms, for `CC(C)C[C@H](NC(=O)[C@H](CO)NC(=O)[C@H](CO)NC(=O)CCCCCNC(=S)Nc1ccc2c(c1)C(=O)OC21c2ccc(O)cc2Oc2cc(O)ccc21)C(=O)N[C@@H](CCCNC(=N)N)C(=O)NCC(=O)N1CCC[C@H]1C(=O)N[C@@H](CCCNC(=N)N)C(=O)N[C@@H](CCC(=O)O)C(=O)N[C@@H](CCCNC(=N)N)C(=O)N[C@@H](C)C(=O)N1CCC[C@H]1C(=O)N[C@@H](CO)C(=O)N[C@@H](CCC(=O)O)C(N)=O` [RGPR] ({FITC-Ahx}-SSLRGPRERAPSE-NH2) the value was about 1000 nM.
For the molecule “recombinant His-tagged human CK1ε (MyBioSource, #MBS964562) (from UniProt P49674 1-416) (enzyme)”, the Kd in experiment [2], in experiment [3] and in experiment [4] was 1000 nM throughout.

B1: WT-Dvl3 (protein, UniProt Q92997 1-716, looked up)
Segment polarity protein …: MGETKIIYHLDGQETPYLVKLPLPAERVTLADFKGVLQRPSYKFFFKSMDDDFGVVKEEISDDNAKLPCFNGRVVSWLVSAEGSHPDPAPFCADNPSELPPPMERTGGIGDSRPPSFHPHAGGGSQENLDNDTETDSLVSAQRERPRRRDGPEHATRLNGTAKGERRREPGGYDSSSTLMSSELETTSFFDSDEDDSTSRFSSSTEQSSASRLMRRHKRRRRKQKVSRIERSSSFSSITDSTMSLNIITVTLNMEKYNFLGISIVGQSNERGDGGIYIGSIMKGGAVAADGRIEPGDMLLQVNEINFENMSNDDAVRVLREIVHKPGPITLTVAKCWDPSPRGCFTLPRSEPIRPIDPAAWVSHTAAMTGTFPAYGMSPSLSTITSTSSSITSSIPDTERLDDFHLSIHSDMAAIVKAMASPESGLEVRDRMWLKITIPNAFIGSDVVDWLYHNVEGFTDRREARKYASNLLKAGFIRHTVNKITFSEQCYYIFGDLCGNMANLSLHDHDGSSGASDQDTLAPLPHPGAAPWPMAFPYQYPPPPHPYNPHPGFPELGYSYGGGSASSQHSEGSRSSGSNRSGSDRRKEKDPKAGDSKSGGSGSESDHTTRSSLRGPRERAPSERSGPAASEHSHRSHHSLASSLRSHHTHPSYGPPGVPPLYGPPMLMMPPPPAAMGPPGAPPGRDLASVPPELTASRQSFRMAMGNPSEFFVDVM
On to B1, for which the “open neural tube (number of embryos)” value in the experiment on Xenopus laevis embryos (1. Injection) worked out at 3; in the experiment on Xenopus laevis embryos (2. Injection) it was 1; in the experiment with Xenopus laevis embryos (3. Injection), 0. Moreover, the “shortened AP axis (number of embryos)” value in the experiment on Xenopus laevis embryos (2. Injection) and with Xenopus laevis embryos (3. Injection) was 0 each time. For the same molecule, in the experiment on Xenopus laevis embryos (Graph: sum of injections 1-3), the “open NT (number of embryos)” value worked out at 4.
